8 sequences from a protein production outcome set (Wang et al. 2014) can be followed below.

The nature of the data set: label from the status in PepcDB records.

In the case of “MHEWGLSEELKIQTKQMIEIAEKELSIMRNAIDKEDECILCKMEDIHHMLANVQTLAATYYIQAYLSPYTESSSFITTAIQHLSARKHGALIVVERNETLEALIQTGTTLNAHLTAPLLESIFYPGNPLHDGAVLVKNNHIVSAANILPLTKSTEVDPELGTRHRAAIGLSEKSDALILVVSEETGRTSFALNGILYTISL”, the protein production entry is listed as “not failed”.

For “MHFRLILSMIVVTHTAVVQVLIHMEWIADPSIWAGLVTLVVIELVLGIDNLVFIAILAEKLPPAQRDRARITGLMLAMVMRLLLLASISWLVTLTKPLIVFHDFSFSARDLIMLFGGLFLLFKATVELNERLEGKDSDNPTQRKGAKFWAVVAQIVVLDAIFSLDSVITAVGMVDHLAVMMAAVVIAISLMLMASKALTRFVNSHPTIVILCLSFLLMIGFSLIAEGFSFIIPKGYLYAAIGFSVMIEALNQLAQFNRRRFLSANMTLRQRTTEAVMNLLSGQKEKAELDADTASLVADQDQHPLFNPQERLMIERVLNLNQRSVSSIMTSRHDIERINLSAPEEEIRSLVEKNQHTRLVVTGGKDNEDLLGVVHVIDLLQQSLRQEPLDLQALVRQPLVFPEGLPLLSALEQFRQARTHFAFVVDEFGSVEGIVTLSDVMETIAGNLPNEVEEIDARHDIQHHQDGSWTVNGHMPLEDLVQYVPLPLDDKREYHTVAGLLMEYLQHVPQVGETIEIDGYTLRTLQVDSHRVQKVQIVPPVKQDELDYEV”, the protein production result is listed as “failed”.

Turning to “MHFTRALRIQLIPSFFFRAIYPLVVLLILLHAQSGLAETIYRSTDSHGRTLYSDIPTPAAKPLQPATPPARSKYRVTRVIDGDTIVLENNKRVRLLGINAPETGNRYHPGEPGGADAKKWLRGKLQGRSVYLEHDRQTHDHYKRMLAHLYLPDGEHINLSLVEKGLAIANLIPPNLLHANTLIRAQQRAETRKLGIWSMQHYQPRPLIKLTEKPFGWQRYRVKAKVLKRNHRFSRLIISDNLDLSFANRDLALFPPLETYLNRPLEVRGWVSRRKNHFSIRIQHPSALILY”, the protein production result is “failed”.

On to “MHGVEFAPLERQHGSQVLALLRGTLLVPLPRLHQRLEEAYERDARLGLAQVALCRLAGNAEKVVGVLLARVATRRTCCAQVYIDAVAVDAVFQGQGIGSRLLLRVLTPCLPDGLEVREVFLHTPLQATELVAFYRSCGFESDDEVIDNYYPRRWMPQAQALVLRWRPPTAAQHQHEERKGPQDADVS”, for which the protein production entry is reported as “not failed”.

With “MHIPLWHSRVPSATLSRSHSVLLPLSLTAHSPKRARLVAMSTNPEIPQWFALTPRVWTTSVEPESVTCGLVAGEDHVLLIDTGSTPEQGHTLAMSAARMLGRPVDRIVVTHHHYDHSGGLPGITDAEVWMHEAALAHCPDLHVDHPVSLMAYVNLGGLGAEVIHPGPAHTDGDLIVIVRDEKITFVGDLVETAGEPQSDGTTDVRGWPRAIDSVITGTDGAGLYVPGHGQPIDATDVMNQRAQLAERIPTNIPLTDRHIPLP”, the protein production entry was “failed”.

Take “MHKYRLVAKKGEGTFSEVLKAQCIKNGKYVAIKCMKNHFDSLDQVNNLREIQALRRLSPHANIIKLLEVLYDQPTGRLALVFELMDMNIYELIRGRRHYVAEERIKNYMYQLMKSMDHMHRNGIFHRDIKPENILIMDDCLKLADFGSCRGIYSKQPYTEYISTRWYRAPECLLTDGYYNYKMDMWGVGCVFFEIVSLFPLFPGTNELDQITKIHNILGTPPPDLLAKMKKRSAHMDFNFPPKEGSGVAKLIPHVNPECVDLIVKLLMYNPDERLSARQALRHPYFRDLREAEKRQKALLAPDVSNHFTAMEADKARQQQTVSSTGSDHEHPTSAGGDGGAGTGAVGTHDGSAAAAAAAAALPSISGARGHAGPEGGHDNDMG”: the protein production result was “not failed”.

As for “MHLVNIRNQPLGNTIIQVLGVMAFGLFAAVVYMKTSNLIFAIVVHAMNDFMAIMASSGSLSSQQTNPLTILYEWFIFGTLAFALFYTGWTQREKFIAAIQERSPQLTARKLPTLAQSSTFRRIFALVSMIYGILILPTMLLFSKLSTSAGSRAEIANKALPIYLLFLLGIALYIFLIVFFDFHLGNLCWLLLPYIGGPVFALIALVNGARPLTEKTNQSKTINNKTPN”, the protein production result was “failed”.

Take “MHMALIHSILMGAVAGMRSMTPLAAVANAARTGKLPADNGAPALLANPLASAGMLALAGGELAGDKMKTAPDRIVLPGMIARIATGVIVGTALAPREQRGIAALLGATTAVAAAYLTFNARMRAIERYGQTSTGVVEDAISVGAATLIVRDAAKR”: the protein production entry was “failed”.
